T1: human αE-catenin (full-length; expressed from pJ6αECTN in HEK293T cells, also endogenous in HEK293T) (human, UniProt P35221 1-906)
T1 construct: also called PJ6αECTN(37-3433); pJ6αE-catenin
T1 sequence (looked up): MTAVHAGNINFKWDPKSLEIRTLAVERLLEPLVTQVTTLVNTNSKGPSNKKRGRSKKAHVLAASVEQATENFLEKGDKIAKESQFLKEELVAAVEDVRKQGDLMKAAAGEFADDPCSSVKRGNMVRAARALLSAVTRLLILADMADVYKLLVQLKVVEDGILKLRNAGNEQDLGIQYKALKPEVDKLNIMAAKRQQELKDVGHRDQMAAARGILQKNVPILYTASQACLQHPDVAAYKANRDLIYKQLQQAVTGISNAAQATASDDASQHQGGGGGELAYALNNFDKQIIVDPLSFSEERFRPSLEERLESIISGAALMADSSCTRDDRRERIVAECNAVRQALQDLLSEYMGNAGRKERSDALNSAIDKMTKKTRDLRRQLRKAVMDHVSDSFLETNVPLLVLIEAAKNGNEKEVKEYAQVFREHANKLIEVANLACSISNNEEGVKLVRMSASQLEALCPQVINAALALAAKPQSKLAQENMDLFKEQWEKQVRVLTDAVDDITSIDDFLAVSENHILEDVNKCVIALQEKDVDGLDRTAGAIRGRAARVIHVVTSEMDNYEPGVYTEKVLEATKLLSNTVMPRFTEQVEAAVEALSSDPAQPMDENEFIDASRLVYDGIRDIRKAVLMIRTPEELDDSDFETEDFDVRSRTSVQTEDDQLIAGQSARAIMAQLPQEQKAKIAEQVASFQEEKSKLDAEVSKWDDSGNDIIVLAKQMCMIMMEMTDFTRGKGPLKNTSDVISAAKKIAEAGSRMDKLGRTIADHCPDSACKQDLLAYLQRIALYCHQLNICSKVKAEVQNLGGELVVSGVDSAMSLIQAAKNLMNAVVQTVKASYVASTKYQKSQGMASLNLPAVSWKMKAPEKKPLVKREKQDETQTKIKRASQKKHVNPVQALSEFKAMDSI

B1: zinc fingers 4 to 5 of ANC-2H01 fused to the GAL4-AD (plasmid pACT2ANC2H01-ZF4-5) (other, not shown: large carriers)
chain: LYWCEQCDVQFSSSSELYLHFQEHSCDEQYLCQFCEHETNDPEDLHSHVVNEHACKLIELSDK
notes: also called pACT2ANC2H01Zn4-5
B2: ANC-2H01/500 (amino-terminal part of ANC-2H01 lacking any functional zinc finger, fused to the GAL4-AD in pGAD10) (other, not shown: large carriers)
chain: IADGFNGIFSDHCYSVCSMRQPDLKYFDNKDDDSDTETSNDLPKFADGIKARNRNQNYLVPSPVLRILDHTAFSTEKSADIVICDEECDSPESVNQQTQEESPIEVHTAEDVPIAVEVHAISEDYDIETENNSSESLQDQTDEEPPAKLCKILDKSQALNVTAQQKW
notes: whole entry named, only the stated part stood in the assay
B3: αN-catenin residues 535-787 fused to the GAL4-DBD (plasmid pGBT9ANCTN(PstI 1618-2375)) (other, UniProt P04386 1-147, looked up)
chain: MKLLSSIEQACDICRLKKLKCSKEKPKCAKCLKNNWECRYSPKTKRSPLTRAHLTEVESRLERLEQLFLLIFPREDLDMILKMDSLQDIKALLTGLFVQDNVNKDAVTDRLASVETDMPLTLRQHRISATSSSEESSNKGQRQLTVSTLDRTAGAIRGRAARVIHIINAEMENYEAGVYTEKVLEATKLLSETVMPRFAEQVEVAIEALSANVPQPFEENEFIDASRLVYDGVRDIRKAVLMIRTPEELEDDSDFEQEDYDVRSRTSVQTEDDQLIAGQSARAIMAQLPQEEKAKIAEQVEIFHQEKSKLDAEVAKWDDSGNDIIVLAKQMCMIMMEMTDFTRGKGPLKNTSDVINAAKKIAEAGSRMDKLARAVADQCPDSACKQDLLAYLQRIALYCH
B4: ANC-2H01 initial two-hybrid clone (part of ANC-2H01 fused to the GAL4-AD, plasmid pGAD10ANC2H01) (other, not shown: large carriers)
chain: IADGFNGIFSDHCYSVCSMRQPDLKYFDNKDDDSDTETSNDLPKFADGIKARNRNQNYLVPSPVLRILDHTAFSTEKSADIVICDEECDSPESVNQQTQEESPIEVHTAEDVPIAVEVHAISEDYDIETENNSSESLQDQTDEEPPAKLCKILDKSQALNVTAQQKWPLLRANSSGLYKCELCEFNSKYFSDLKQHMILKHKRTDSNVCRVCKESFSTNMLLIEHAKLHEEDPYICKYCDYKTVIFENLSQHIADTHFSDHLYWCEQCDVQFSSSSELYLHFQEHSCDEQYLCQFCEHETNDPEDLHSHVVNEHACKLIELSDKYNNGEHGQYSLLSKITFDKCKNFFVCQVCGFRSRLHTNVNRHVAIEHTKIFPHVCDDCGKGFSSMLEYCKHLNSHLSEGIYLCQYCEYSTGQIEDLKIHLDFKHSADLPHKCSDCLMRFGNERELISHLPVHETT
notes: 27-485 is derived from 459 of 485 residues; also called ANC-2H01 clone; initial ANC-2H01 two-hybrid clone
B5: ANC-2H01/BamHI (amino-terminal part of the ANC-2H01 clone plus two of the nine zinc fingers, fused to the GAL4-AD in pGAD10) (other, not shown: large carriers)
chain: IADGFNGIFSDHCYSVCSMRQPDLKYFDNKDDDSDTETSNDLPKFADGIKARNRNQNYLVPSPVLRILDHTAFSTEKSADIVICDEECDSPESVNQQTQEESPIEVHTAEDVPIAVEVHAISEDYDIETENNSSESLQDQTDEEPPAKLCKILDKSQALNVTAQQKWPLLRANSSGLYKCELCEFNSKYFSDLKQHMILKHKRTDSNVCRVCKESFSTNMLLIEHAKLHEEDP
notes: 700-bp BamHI fragment of the initial clone; only the stated part stood in the assay; also called pGAD10ANC-2H01/BamHI
B6: ANC-2H01/600 (amino-terminal part of the initial ANC-2H01 plus half of the first zinc finger, fused to the GAL4-AD in pGAD10) (other, not shown: large carriers)
chain: IADGFNGIFSDHCYSVCSMRQPDLKYFDNKDDDSDTETSNDLPKFADGIKARNRNQNYLVPSPVLRILDHTAFSTEKSADIVICDEECDSPESVNQQTQEESPIEVHTAEDVPIAVEVHAISEDYDIETENNSSESLQDQTDEEPPAKLCKILDKSQALNVTAQQKWPLLRANSSGLYKCELCEFNSKY
notes: as for B2
B7: zinc fingers 1 to 5 of ANC-2H01 fused to the GAL4-AD (plasmid pACT2ANC2H01ZF1-5) (other, not shown: large carriers)
chain: LYKCELCEFNSKYFSDLKQHMILKHKRTDSNVCRVCKESFSTNMLLIEHAKLHEEDPYICKYCDYKTVIFENLSQHIADTHFSDHLYWCEQCDVQFSSSSELYLHFQEHSCDEQYLCQFCEHETNDPEDLHSHVVNEHACKLIELSDK
B8: zinc fingers 1 to 3 of ANC-2H01 fused to the GAL4-AD (plasmid pACT2ANC2H01ZF1-3) (other, not shown: large carriers)
chain: LYKCELCEFNSKYFSDLKQHMILKHKRTDSNVCRVCKESFSTNMLLIEHAKLHEEDPYICKYCDYKTVIFENLSQHIADTHFSDHL
B9: E-tagged full-length ANC-2H01 protein (expression plasmid pEFBOSANC-2H01E), expressed in HEK293T cells (other)
chain: MNEYPKKRKRKTLHPSRYSDSSGISRIADGFNGIFSDHCYSVCSMRQPDLKYFDNKDDDSDTETSNDLPKFADGIKARNRNQNYLVPSPVLRILDHTAFSTEKSADIVICDEECDSPESVNQQTQEESPIEVHTAEDVPIAVEVHAISEDYDIETENNSSESLQDQTDEEPPAKLCKILDKSQALNVTAQQKWPLLRANSSGLYKCELCEFNSKYFSDLKQHMILKHKRTDSNVCRVCKESFSTNMLLIEHAKLHEEDPYICKYCDYKTVIFENLSQHIADTHFSDHLYWCEQCDVQFSSSSELYLHFQEHSCDEQYLCQFCEHETNDPEDLHSHVVNEHACKLIELSDKYNNGEHGQYSLLSKITFDKCKNFFVCQVCGFRSRLHTNVNRHVAIEHTKIFPHVCDDCGKGFSSMLEYCKHLNSHLSEGIYLCQYCEYSTGQIEDLKIHLDFKHSADLPHKCSDCLMRFGNERELISHLPVHETT
notes: also called pEFBOS-EANC-2H01; E-tagged ANC-2H01; not shown: E-tag derived from plasmid pCANTAB5E (Pharmacia), at the amino-terminal side
B10: about full-length ANC-2H01 fused to the GAL4-AD (plasmid pGAD424ANC-2H01-FL) (other, not shown: large carriers)
chain: B9 chain
B11: αN-catenin residues 4-193 fused to the GAL4-DBD (plasmid pGBT9ANCTN(EcoRI-BamHI)) (other, UniProt P04386 1-147, looked up)
chain: MKLLSSIEQACDICRLKKLKCSKEKPKCAKCLKNNWECRYSPKTKRSPLTRAHLTEVESRLERLEQLFLLIFPREDLDMILKMDSLQDIKALLTGLFVQDNVNKDAVTDRLASVETDMPLTLRQHRISATSSSEESSNKGQRQLTVSATSPIILKWDPKSLEIRTLTVERLLEPLVTQVTTLVNTSNKGPSGKKKGRSKKAHVLAASVEQATQNFLEKGEQIAKESQDLKEELVAAVEDVRKQGETMRIASSEFADDPCSSVKRGTMVRAARALLSAVTRLLILADMADVMRLLSHLKIVEEALEAVKNATNEQDLANRFKEFGKEMVKLNYVAARR

Assays:
[1] = target: T2, human αN-catenin fused to the GAL4-DBD in pGBT9 (plasmid pGBT9ANCTN) (human, UniProt P04386 1-147; P26232 4-905, limits assumed); experiment: yeast two-hybrid, strain Y190 (FIG. 16)
T2 construct: Construction of pGBT9ANCTN is not described; also called pGBT9αNCTN; pGBT9-αNCTN

[2] = target: αN-catenin residues 4-535 fused to the GAL4-DBD (plasmid pGBT9ANCTN(EcoRI-PstI)) (human, UniProt P04386 1-147; P26232 4-535); experiment: yeast two-hybrid (FIG. 4)
[3] = target: T2, human αN-catenin fused to the GAL4-DBD …; experiment: yeast two-hybrid (FIG. 4)
[4] = target: B11; experiment: yeast two-hybrid (FIG. 4)
[5] = target: B3; experiment: yeast two-hybrid (FIG. 4)
[6] = target: T3, αN-catenin residues 543-906 fused to the GAL4-DBD (plasmid pGBT9ANCTN-(XhoI-SalI)) (human, UniProt P04386 1-147; P26232 543-906); experiment: yeast two-hybrid (FIG. 4)
T3 construct: the UniProt canonical isoform differs near the C-terminus

[7] = target: T4, human αE-catenin fused to the GAL4-DBD (plasmid pGBT9αECTN) (human, UniProt P04386 1-147; P35221 1-906, limits assumed); experiment: yeast two-hybrid, strain HF7c (FIG. 4)
T4 construct: also called full-length αE-catenin

[8] = target: B4; experiment: yeast two-hybrid (FIG. 4)
[9] = target: T1, human αE-catenin (full-length; …); experiment: co-immunoprecipitation from cotransfected HEK293T cells, Western blot
[10] = target: T4, human αE-catenin fused to the GAL4-DBD …; experiment: yeast two-hybrid, strain Y190, HIS3 and LacZ reporters (FIG. 11)

Binder: B1
binding result [1]: no binding

Binder: B2
binding result [2]: no binding
binding result [3]: no binding
binding result [4]: no binding
binding result [5]: no binding
binding result [6]: no binding
binding result [7]: no binding

Binder: B3
binding result [8]: no binding

Binder: B4
binding result [6]: no binding
binding result [7]: no binding

Binder: B5
binding result [2]: no binding
binding result [3]: no binding
binding result [4]: no binding
binding result [5]: no binding
binding result [6]: no binding
binding result [7]: no binding

Binder: B6
binding result [2]: no binding
binding result [3]: no binding
binding result [4]: no binding
binding result [5]: no binding
binding result [6]: no binding
binding result [7]: no binding

Binder: B7
binding result [1]: no binding

Binder: B8
binding result [1]: no binding

Binder: B9
binding result [9]: no binding

Binder: B10
binding result [10]: no binding

Binder: B11
binding result [8]: no binding

From US6767720 (VLAAMS INTERUNIVERSITAIR INSTITUUT VOOR BIOTECHNOLOGIE VZW, dated 2004)
